This note sets out measurements from FireProtDB (doi:10.1002/pro.342).

By Tm is commonly meant the temperature at the midpoint of the melting transition.

For the data set the following is noted: Escherichia coli, pH 6.3, CD, Phosphate 50 mM, NaCl 300 mM, whole UniProt chain shown.

B1: Regulatory protein rop wild type, P03051 (protein)
chain: MTKQEKTALNMARFIRSQTLTLLEKLNELDADEQADICESLHDHADELYRSCLARFGDDGENL
Consider B1, for which, for the setting “Thermal”, the Tm was found to be 70 °C, the “heat capacity change of unfolding” value was 1.1 kcal/mol/K and the “unfolding enthalpy (van 't Hoff)” value was found to be 65 kcal/mol. Moreover, under “Urea”, the denaturant m value came to 2.1 kcal/mol/M, the “denaturant midpoint (higher = more stable)” value is 4.6 M and the unfolding free energy is 16 kcal/mol.
